Earlier results, collected in article PMC7225939.
Like-named read-outs stand apart in the source and are kept apart here.

What was measured:
PCNA (Homo sapiens) = PCNA (Homo sapiens) (UniProt P12004); test: ITC
Cdt1 (Homo sapiens) = test: FP
Cdt2 (Homo sapiens) = test: FP
ZRANB3 (Homo sapiens) [1] = test: ITC
Target sequence in this assay (Q5FWF4 1058-1079): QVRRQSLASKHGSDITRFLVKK

pol η (Homo sapiens) = test: SPR
pol ι (Homo sapiens) = test: SPR
DNMT1 (Homo sapiens) = test: ITC
DVC1 (Homo sapiens) = test: ITC
FEN1 (Homo sapiens) = test: ITC
PARG (Homo sapiens) = test: ITC
TRAIP (Homo sapiens) = test: ITC
UHRF2 (Homo sapiens) = test: ITC
ZRANB3 (Homo sapiens) [2] = test: ITC; remark: listed apart in the source
Target sequence in this assay (Q5FWF4 511-532): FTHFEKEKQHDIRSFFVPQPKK

p12 (Homo sapiens) = test: ITC
[3] = target: p15 (PAF15) (Homo sapiens) (UniProt Q15004); test: ITC
p15PAF (Homo sapiens) = test: ITC
p21 (Homo sapiens) = test: ITC
p68 (Homo sapiens) = test: ITC
RecQ5 (Homo sapiens) = test: NMR
RecQ5 (Homo sapiens), sequence (O94762 952-980): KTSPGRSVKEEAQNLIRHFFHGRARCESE

PCNA (Homo sapiens), sequence (P12004 whole entry): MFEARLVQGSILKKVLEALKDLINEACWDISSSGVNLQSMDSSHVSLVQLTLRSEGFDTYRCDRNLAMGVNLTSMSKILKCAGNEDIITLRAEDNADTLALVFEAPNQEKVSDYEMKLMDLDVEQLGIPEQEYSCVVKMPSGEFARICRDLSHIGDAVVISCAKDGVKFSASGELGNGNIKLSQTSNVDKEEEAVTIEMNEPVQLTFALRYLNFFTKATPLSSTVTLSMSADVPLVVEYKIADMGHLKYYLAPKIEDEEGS
PCNA, sequence (P12004 whole entry): as above
pol η (Homo sapiens), sequence (Q9Y253 other isoform, or with tags, fused parts or gaps): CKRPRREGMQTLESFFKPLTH
DNMT1 (Homo sapiens), sequence (P26358 161-180): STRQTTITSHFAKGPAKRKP
p15PAF (from UniProt Q15004), sequence (Q15004 whole entry): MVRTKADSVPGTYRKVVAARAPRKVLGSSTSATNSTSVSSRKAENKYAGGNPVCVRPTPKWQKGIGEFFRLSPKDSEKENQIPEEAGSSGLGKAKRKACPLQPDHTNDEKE
p15 (PAF15) (Homo sapiens), sequence (Q15004 whole entry): as above
TRAIP (Homo sapiens), sequence (Q9BWF2 447-469): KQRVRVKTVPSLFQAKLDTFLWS
p15PAF, sequence (Q15004 50-77): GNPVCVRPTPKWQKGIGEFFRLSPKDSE
p21, sequence (P38936 139-160): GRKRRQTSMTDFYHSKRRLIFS

Substance: p21
- Kd (PCNA (Homo sapiens)): 0.08 µM

Substance: ZRANB3
- Kd (PCNA (Homo sapiens)): 4.8 µM

Substance: FEN1
- Kd (PCNA (Homo sapiens)): 59.9 µM

Substance: p68 (DNA polymerase delta subunit)
- Kd (PCNA (Homo sapiens)): 16 µM

Substance: p15PAF
- Kd (PCNA (Homo sapiens)): 5.56 µM

Substance: p15PAF (from UniProt Q15004)
- Kd (PCNA (Homo sapiens)): 1.1 µM

Substance: PCNA (from UniProt P12004)
- Kd (Cdt1 (Homo sapiens)): 7.2 µM
- Kd (Cdt2 (Homo sapiens)): 0.057 µM
- Kd (ZRANB3 (Homo sapiens) [1]): 9.24 µM
- Kd (pol η (Homo sapiens)): 0.4 µM
- Kd (pol ι (Homo sapiens)): 0.39 µM
- Kd (DNMT1 (Homo sapiens)): 1 µM
- Kd (DVC1 (Homo sapiens)): 15.6 µM
- Kd (FEN1 (Homo sapiens)): 59.9 µM
- Kd (PARG (Homo sapiens)): 3.3 µM
- Kd (TRAIP (Homo sapiens)): 30.7 µM
- Kd (UHRF2 (Homo sapiens)): 25.7 µM
- Kd (ZRANB3 (Homo sapiens) [2]): 4.8 µM
- Kd (p12 (Homo sapiens)): 38 µM
- Kd [3]: 1.1 µM
- Kd (p15PAF (Homo sapiens)): 5.56 µM
- Kd (p21 (Homo sapiens)): 0.08 µM
- Kd (p68 (Homo sapiens)): 16 µM
- Kd (RecQ5 (Homo sapiens)): 210 µM
